This passage reports Kd results from patent US20100143254A1.

The assay concerns the target human FcRn (human) (UniProt P55899). The experiment in a line: SPR (BIAcore) steady state, immobilized IgG, human FcRn 16-2860 nM, pH 6.0. On the technique in general: Surface plasmon resonance follows binding to a sensor surface in real time, without labels.

Chain of human FcRn (human) (P55899 24-297 limits assumed, chain 1 of 2): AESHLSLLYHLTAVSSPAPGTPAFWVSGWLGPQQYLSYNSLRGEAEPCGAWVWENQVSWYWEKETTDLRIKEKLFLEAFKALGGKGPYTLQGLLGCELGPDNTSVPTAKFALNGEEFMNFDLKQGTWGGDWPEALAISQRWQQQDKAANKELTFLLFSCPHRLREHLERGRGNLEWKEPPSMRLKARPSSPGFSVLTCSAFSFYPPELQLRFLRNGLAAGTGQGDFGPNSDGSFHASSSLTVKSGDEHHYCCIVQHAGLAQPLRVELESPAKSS
Chain of human FcRn (human) (P61769 21-119 limits assumed, chain 2 of 2, further chain): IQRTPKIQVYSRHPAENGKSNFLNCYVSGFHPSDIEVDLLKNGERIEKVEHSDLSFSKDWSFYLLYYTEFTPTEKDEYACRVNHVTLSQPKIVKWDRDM

Turning to MEDI-524 (wild type) (antibody), the Kd (in general, the free concentration of one partner at which half of the binding sites on the other are occupied at equilibrium, for simple one-to-one binding) is 2.68 µM. As to MEDI-524 G385S + Q386I (antibody), the Kd is 3.03 µM. As for MEDI-524 L309N (antibody), the Kd worked out at 15.9 µM. Under MEDI-524 R255V (antibody) stands 11.3 µM.
